According to the supplement of paper PMC12042874:
± gives the uncertainty stated by the source.

experiment: amyloid nucleation score (Sup35N fusion, yeast selection) (log enrichment); library NNK2; higher = more nucleation; inactive = no reads after selection
Method in brief: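 Sup35N was fused to peptides of 20 random codons and expressed in psi-negative yeast, which were induced with 100 μM copper sulfate for 24 hours and then grown on medium lacking adenine and uracil for 7 days at 30°C. Plasmid inserts from input and output were sequenced on Illumina. The nucleation score is the DiMSum log enrichment of output over input reads, centred on the mode score of non-aggregating sequences. Sequences with under 100 input reads were left out, and random libraries had three technical output replicates.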

| Substance | amyloid nucleation score |
| --- | --- |
| TRGPR | 0.76 ± 0.46 |
| LPLLCFTDV | inactive |
| IVLEMLKVTRVGPKQIGWPW | 0.696 ± 0.38 |
| ENSANNLGMFERSSRYRLSG | 0.356 ± 0.34 |
| SSFRVELHRCFVKVFLLLY | -0.266 ± 1 |
| VSACSDLNGW | -0.233 ± 0.47 |
| HGTNTRADYFCIYPHGNG | -0.281 ± 0.37 |
| FLVMGLRYS | 5.407 ± 0.052 |
| LLGAGLSITMWDGPQL | 0.654 ± 0.23 |
| SFMGLAMHRSLSSCSVRSWY | 0.199 ± 0.53 |
| NNSWTDLRCVIYMSITGEPH | 8.633 ± 0.044 |
| TYSTSSLYRMEIHLAFSASV | -0.22 ± 1 |
| KTIQVGQVA | 1.24 ± 0.29 |
| NKKIIYDQIFIRMGSFQLN | inactive |
| LFMFGFGIL | 0.05 ± 0.42 |
| VEHARGDRCCRQDYGVQQYK | 2.68 ± 0.23 |
| FRKCI | 1.25 ± 0.38 |
| SGYWNGVIRTKSNNDTVYVK | -0.395 ± 0.22 |
| GKGNLQSCYEWKYKKLYVHT | -0.248 ± 0.38 |
| PSVTRVLSLVILEAPNA | 2.76 ± 0.14 |
| MWTIIMGMVILPRNRNL | 3.8 ± 0.078 |
| KLPIRLMTCASNFNLGNCWL | 6.003 ± 0.038 |

| Substance | amyloid nucleation score |
| --- | --- |
| TRHSGKLLFNILMFRVMSCR | -0.36 ± 0.74 |
| IFNVKRGILVTSVFDNVQVW | inactive |
| LTIVLQLGLL | 8.52 ± 0.066 |
| PLLGLRG | 0.102 ± 1.1 |
| TVSYKWSSMEVITKYKGWSR | 0.897 ± 0.28 |
| GGYDP | inactive |
| CHRLSNLKRVDDAGFVRWNY | -0.477 ± 0.23 |
| IDDDHLEHEVNGSRRCKMRW | -0.055 ± 1.1 |
| FFMIEMPVKSTFVGWSRSEG | -0.074 ± 0.25 |
| TTSKISSSKSLEARHTSHLP | 0.985 ± 0.27 |
| TRNNLSVERQKVRAMSCEKC | -0.038 ± 1.1 |
| FQGVVSRYSYYS | 1.81 ± 0.22 |
| LAGYNFLKETRDMVTIMAYE | inactive |
| NIWFKFPHVLNS | -0.063 ± 0.76 |
| AYYFVLNVSTNLGNLGRTIL | 4.35 ± 0.11 |
| LSKINVFWKSSTALQCLAPE | -0.322 ± 0.55 |
| HARHRGVCFWCVADSAPVYH | -0.012 ± 1.1 |
| YIFSILRDKSVPFDSQVSKN | -0.797 ± 1.1 |
| VSRVEYCSGCMSANYLL | 7.7 ± 0.08 |
| FTSFCMMKGPGLY | -1.44 ± 1.1 |
| IVYWSSEWRKPGAHDTLD | 0.451 ± 0.24 |
| ENERNML | -0.11 ± 0.29 |

| Substance | amyloid nucleation score |
| --- | --- |
| GISLGDNIRFYLDCTAAPGA | -0.648 ± 0.42 |
| IVHLSHQG | -1.25 ± 0.62 |
| YTFKYLSRMYLHYSVKGMWL | 0.325 ± 0.8 |
| EMCGATRG | 3.28 ± 0.085 |
| TTRIS | inactive |
| YSFGVQC | 0.067 ± 0.25 |
| CASLRIEDP | 1.17 ± 0.18 |
| YFSCEFDTYHGEYCCMWQIM | 0.069 ± 0.8 |
| LVGSVWFEISFDSQMYSFG | inactive |
| IDDCVKGKTPGNSGNMFCLP | -1.06 ± 0.42 |
| SLSVI | 0.264 ± 0.65 |
| AHRYGR | 1.57 ± 0.43 |
| SFFLFWRFCIGAW | -0.977 ± 0.63 |
| LKITRRSALV | 0.186 ± 0.76 |
| IVVRL | 0.639 ± 0.41 |
| SFACVSLIFISY | 5.72 ± 0.063 |
| LSMTKVLFCTFEITSLSLYQ | -0.245 ± 0.62 |
| CYRHSERYRTSSLLSWERGP | 0.783 ± 0.57 |
| VGIDYV | inactive |
| IPCTTSCVVQFCVTYWLDN | 6.419 ± 0.029 |
| PTIMLTGR | 0.208 ± 0.65 |
| TIGPNKMRVEAGLEFQKLGK | -1.23 ± 0.76 |

| Substance | amyloid nucleation score |
| --- | --- |
| IVDHVYCIVILDLEHFFYNE | 5.02 ± 0.083 |
| LGRWASGTAG | 0.558 ± 0.57 |
| FLIKAKGFYSSLLATGGIEK | inactive |
| DAVFGTCSLFCRTCAKASFG | 1.58 ± 0.25 |
| EQKGSVTYCGYKMSDV | 4.97 ± 0.062 |
| RLKMEICDLTFPAQLFQTFG | 3.49 ± 0.079 |
| CLKFFADGSQAGCSERAGLR | 0.041 ± 0.28 |
| YHRCMKGVRDFVKLVDDCML | -1.09 ± 0.49 |
| RFERISQAKIARTLGLWEML | 0.878 ± 0.17 |
| NRIYVQNRPWSIPENVELTG | -0.821 ± 0.78 |
| RTIQMVTSQSLPCFC | 6.196 ± 0.042 |
| FIWSLRGDDRSCLRLSSLQT | -1 ± 0.63 |
| TMILKWESRCERGPGEVRLV | 6.204 ± 0.052 |
| TRTLRDGVHVGEPLAVYWCC | 9.477 ± 0.028 |
| IRFDFSC | 1.51 ± 0.17 |
| IDFLM | -0.744 ± 0.39 |
| RYLIGNSGNYVNGCVEQALR | -0.365 ± 0.76 |
| PHRSPMGANHPERCLVPMLF | -0.134 ± 0.55 |
| LTSWKDFRHN | 0.4 ± 0.5 |
| ATFVIY | -0.603 ± 1 |
| NEENVEVFCYRVSGSYRCYQ | 4.36 ± 0.094 |
